Drawing on paper PMC3545015, this text covers binding result and Kd for seven molecules.

T1: Pot1pC (198-339 V199D) (Schizosaccharomyces pombe, UniProt O13988 198-339, V199D)
T1 sequence: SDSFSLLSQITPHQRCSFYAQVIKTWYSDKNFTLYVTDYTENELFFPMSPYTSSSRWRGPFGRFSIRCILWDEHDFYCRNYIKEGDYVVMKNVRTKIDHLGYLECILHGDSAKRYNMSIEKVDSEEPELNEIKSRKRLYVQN

One series addresses T1, Pot1pC (198-339 V199D). As to the kind of experiment: X-ray crystal structure.
Turning to GCTTACGGT (ssDNA) [G2C], the binding result was “binds”.

For the next series, the target named is T1, Pot1pC (198-339 V199D). As to the kind of experiment: ITC. For orientation: ITC needs no label: the signal is the heat of the interaction.
The Kd is the concentration at which binding is half-saturated. For the molecule GGTTAGGGT (ssDNA) [C6G], the affinity, expressed as Kd, was 6 nM. That is a single-digit nanomolar value.
Consider GGATACGGT (ssDNA) [T3A], for which binding was characterised by a dissociation constant (Kd) of 37 nM.
Consider GGTAACGGT (ssDNA) [T4A], for which the Kd came out at 21 nM.
Molecule GGTTTCGGT (ssDNA) [A5T] came in with a Kd of 63 nM.
Molecule GGTTACGCT (ssDNA) [G8C] registered a dissociation constant Kd of 22 nM.
Still for that read-out and setting: next, GGTTACGGT (ssDNA) [9mer]: 24 nM.
